This data set concerns the target native psiRNP containing Cmr1-1, Cmr1-2, Cmr2, Cmr3, Cmr4, Cmr5, Cmr6 (Pyrococcus furiosus, UniProt Q8U1S5;Q8U3V3;Q8U1S6;Q8U1S7;Q8U1S9;Q8U1T0;Q8U1T1 …). Nature of the data set: EMSA; native gel Northern with psiRNA 7.01 probe; mobility shift lost on deproteinization. Conditions: tags: S-sepharose peak fraction, endogenous psiRNAs; other co-purifying proteins present.

B1: psiRNA 7.01, 45 nt (ssRNA)
RNA: AUUGAAAGUUGUAGUAUGCGGUCCUUGCGGCUGAGAGCACUUCAG
For the molecule B1, the binding result was “binds”.

(Values after patent US20110189776, “PROKARYOTIC RNAi-LIKE SYSTEM AND METHODS OF USE” (University of Georgia Research Foundation, Inc., published 2011).)
